In the RNAGym collection of RNA variant scans (doi:10.1073/pnas.2313332121):

B1: TPR t1 (parent)
chain: GACCAAUCUGCCCUCAGAGCUCGAGAACAUCUUCGGAUGCAGAGGAGGCAGGCUUCGGUGGCGCGAUAGCGCCAACGUCCUCAACCUCCAAUGCAUCCCACCACAUGAUGAUGCCUGAAGAGCCUUGGUUUUUUG

Variants of: B1
Test: polymerase ribozyme fitness, log enrichment relative to wild type (log ratio); higher = more active; in vitro selection for triplet polymerase activity
Method in brief: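 PCR was used to build mutant libraries for each subunit of a heterodimeric triplet polymerase ribozyme, which were then transcribed. A single in vitro selection round, in triplicate, used a frozen incubation at −7 °C and recovered extended constructs by gel excision, streptavidin beads and RT-PCR. Fitness is the logarithm of genotype enrichment relative to wild-type enrichment, averaged over replicates with inverse-variance weights. The logarithm is base 2, and after Illumina sequencing only genotypes with ≥10 input reads and ≥1 read per output were kept.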

Point of comparison: GACCAAUCUGCCCUCAGAGAUCGAGAACAUCUUCGGAUGCAGAGUAGGCAGGCUUUGGUGGCGCGAUAGCGCCAACGUCCUCAACCUCCAAUGCAUCCCACCACAUGAUGAUGCCUGAAGAGCCUUGGUUUUUUG [C20A G45U C56U], “polymerase ribozyme fitness (log ratio)” value -3.25. Against it:
- GACCAAUCUGCCCUCAGAGAUCGAGAACAUCUUCGGAUGCAGAGGAGUCAGGCUUCGGUGGCGCGAUAGAGCCAACGGCCUCAACCUCCAAUGCAUCCCACCACAUGAUGAUACCUCAAGAGCCUUGGUUUUUUG [C20A G48U C70A U78G G113A G117C] — lower, -7.02
- GACCAAUCUGCCCUCAGAGAUCGAGAACAUCUUCGGAUGCAGAGGAGGCAGGCUUCGGUGGCGCGAUAGCGGCAACGUCCUCAACCUCCAAUGCAUCCCACCACAUGAUGAUGCCUGAAGAGCCUUGGUUGUUUG [C20A C72G U131G] — lower, -3.6
- GACCAAUCUGCCCUCAGAGAUCGAGAACAUCUUCGGAUGCACAGGAGUCAGGCUUCGGUGGCGCGAUAGCGCCAACGUCCUCAACCUCCAAUGCAUCCCACCACAUGAUGAUGCCUGAAGAUCCUUGGUUUUUUG [C20A G42C G48U G122U] — lower, -4.09
- GACCAAUCUGCCCUCAGAGAUCGAGAACAUCUUCGGAUGCAGAGGAUGCAGGCUUCGGUGGCGCGAUAGCGACAACGUCCUCAACCUCCAAUGCAUCCCACCACAUGAUGCUGCCUGAAGAGCCUUGGUUUUUUG [C20A G47U C72A A111C] — lower, -3.96
- GACCAAUCUGCCCUCAGAGAUCGAGAACAUCUUCGGAUACACAGGAGGCAGGCUUCGGUGUCGCGAUAGCGCCAACGUCCUCAACCUCCAAUGCAUCCCACCACAUGAUGAUGCCUGAAGAGCCUUGGCUUUUUG [C20A G39A G42C G61U U129C] — lower, -5.17
- GACCAAUCUGCCCUCAGAGAUCGAGAACAUCUUCGUAUGCAGAGGAGGCAGGCUUCGGUGGCGCGAUAGCGCCAACGUCCUCAACCUCCAAUGCAUCCCACCACAUGAUGAUGCCUGAAGAGCCUUGGUUUUUUG [C20A G36U] — higher, -2.98
- GACCAAUCUGCCCUCAGAGAUCGAGAACAUCUUCGGAUGCAGAGGAGGCAGGCUUCGGUGGCGCGAUAGCGCCAAUGUCCUGAACCUCCAAUGCAGCCCACCACAUGAUGAUGCCUGAAGAGCCUUGGUUUUUUG [C20A C76U C82G U96G] — lower, -4.53
- GACCAAUCUGCCCUCAGAGAUCGAGAACAUCUUCGGAUGCAUAGGAGGCAGGCUUCGGUGGCGCGAUAGCGCCAACGUCCUCAACCUCCAAUGCAUCCCACCACAUGAUGAUGCCUGAAGAGCCUUGGUUUUUUG [C20A G42U] — lower, -4
- GACCAAUCUGCCCUCAGAGAUCGAGAACAUCUUCGGAUGCACGGGAGGCAGGCUUCGGUGGCGCGAUAGCGCCAACGUCCUCAACCUCCAAUGCAUCCCACCACAUGAUGAUGCCUGAAGAGCCUUGGUUUUUUG [C20A G42C A43G] — within 0.2 log units, -3.32
- GACCAAUCUGCCCUCAGAGAUCGAGAACAUCUUCGGAUGCAGAGGAGGCAGGCUUCGGUGGCGCGAUAGCGCCAACGUCCUCAACCUCCAAUGCAUCCCACCACAUGAUGAUGCCUGAAGAGCAUUGGUUUUUUG [C20A C124A] — higher, -0.989
- GACCAAUCUGCCCUCAGAGAUCGAGAACAUCUUCGGAUGCAGAGCAGGCAGGCUUCCGUGGCGCGAUAGCGCGAACGUCCUCAACCUCCAAUGCAUCCCACCACACGAUGAUGCCUGAAGAGCCUUGGUGUUUUG [C20A G45C G57C C73G U106C U130G] — lower, -4.17
- GACCAAUCUGCCCUCAGAGAUCGAGAACAUCUUCGGAUCCAGAGGAGGCAGGCUUCGGUGGCGCGAUAGCGCCAACGUCCUCAACCUCCAAUGCAUCCCACCACAUGAUGAUGCCUGAAGAGCCUUGGUUUUUUG [C20A G39C] — lower, -3.59
- GACCAAUCUGCCCUCAGAGAUCGAGAACAUCUUCGGAUGCAGAGGAGGCAGGCUUCGGUGGCGCGAUAGAGCCAACGUCCUCAACCUCCAAUGCAUCCCACCACAUGAUGAUGCCUGAAGAGACUUGGUAUUUUG [C20A C70A C123A U130A] — lower, -4.36
- GACCAAUCUGCCCUCAGAGAUCGAGAACAUCUUCGGAUGCAGAGGAGGCAGGCUUCGGUGGCGCGAUAGCGCUAACGUCCUCAACCUCCAAUGCAUCCCACCACAUGAUGAUGCCUGAAGAGCCUUGGUUUUUUG [C20A C73U] — higher, -2.08
- GACCAAUCUGCCCUCAGAGAUCGAGAACAUCUUCGGAUGCAGAGGAGGCAGGCUUCGGUGGCGCGAUAGCGCCAACGUCCUCAACCUACAAUGCAUCCCACCACAUGAUGAUGCCUGAAGAGCCUUGGUUUUUUG [C20A C88A] — higher, -2.94
- GACCAAUCUGCCCUCAGAGAUCGAGAACAUCUUCGGAUGCAGAGGAGGCAGGCUUCGGUGGCGCGAUAGUGCCAACGUCCUCAACCUCCAAUGCAUCCCACCACAUGAUGAUGCCUGAAGAGCCUUGGUUUUUUG [C20A C70U] — within 0.2 log units, -3.19
- GACCAAUCUGCCCUCAGAGAUCGAGAACAUCUUCGGAUGCAGAGGAGGCAGCCUUCGGUGGCGCGAUAGCGCCAACGUCCUCAACCUCCAAUGCAUCCCACCACAUGAUGAUGCCUGAAGAGCCAUGGUUUUUUG [C20A G52C U125A] — higher, -3.04
- GACCAAUCUGCCCUCAGAGAUCGAGAACAUCUUCGGAUGCAGAGGAGGCAGGCUUCGGUGGGGCGCUAGCGCCAACGUCCUCAACCUCCAAUGCAUCCCACCAGAUGAUGAUGCCCGAAGAGGCUUGUUUUUUUG [C20A C62G A66C C104G U116C C123G G128U] — lower, -6.82
- GACCAAUCUGCCCUCAGAGAUCGAGAACAUCUUCGGAUGCAGAGGAGGCAGGCUUCGGUGGCGCGAUAGCGCCAACGUCCUCAACGUCCAAUGCAUCCCACCACAUGAUGAUGUUUGAAGAGCCUUGGUUUUUUG [C20A C86G C114U C115U] — lower, -5.24
- GACCAAUCUGCCCUCAGAGAUCGAGAACAUCUUCGGAUGCAGAGUAGGCAGGCUUCGGUGGCGCGAUAGCGCCAACGUCCUCAACCUCCAAUGCAUCCCACCACAUGAUGAUGCCUGAAGAGCCUUGGUUUUUUG [C20A G45U] — lower, -4.09
